Consider two substances from publication doi:10.1101/2023.03.06.531322.

In this assay the target is TafA (HAH_0240), mature major subunit of tat-fimbriae (tafi) of Haloarcula hispanica (Haloarcula hispanica). In words: co-sedimentation.

On to “TafC (HAH_0242), minor component of tafi of Haloarcula hispanica (natural protein)”, for which the molar ratio in filament preparations (molecules per 100 molecules of TafA) worked out at 1.

As for “TafE (HAH_0239), minor component of tafi of Haloarcula hispanica (natural protein)”, the molar ratio in filament preparations (molecules per 100 molecules of TafA) is 5.
